Assay results taken from the RNAGym collection of RNA variant scans (doi:10.7554/elife.90254).

B1: LINE1-mini (parent)
chain: GGCAGAGCUCAACACAGCGUGGCAAAGUGGCUGUGGCUAGACUGCC

Variants of: B1
Assay: self-cleavage, relative activity (ratio to wild type); higher = more cleavage; in vitro, sequencing; the parent is a self-cleaving ribozyme

First: GGCAAAGCUCAACACAGCGUGGGAAAGUGGCUGUGGCUAGACUGCC
Second: GGCAAAGCUCAACACAGCGUGGAAAAGUGGCUGUGGCUAGACUGCC
The self-cleavage of the first is higher: 0.29 for the first, 0.14 for the second.

Going from GGCAAAGCUCAACACAGCGUGGCAUAGUGGCUGUGGCUAGACUGCC to GGCAAAGCUCAACACAGCGUGGCACAGUGGCUGUGGCUAGACUGCC, the self-cleavage falls from 0.12 to 0.07.

Going from GGCAAAGCUCAACACAGCGUGGCAGAGUGGCUGUGGCUAGACUGCC to GGCAAAGCUCAACACAGCGUGGCAAAAUGGCUGUGGCUAGACUGCC, the self-cleavage falls from 0.14 to 0.1.

First: GGCAAAGCUCAACACAGCGUGGCAAACUGGCUGUGGCUAGACUGCC
Second: GGCAAAGCUCAACACAGCGUGGCAAAUUGGCUGUGGCUAGACUGCC
The self-cleavage of the first is lower: 0.07 for the first, 0.08 for the second.

Going from GGCAAAGCUCAACACAGCGUGGCAAAGUGGCUGUGGCUAGCCUGCC to GGCAAAGCUCAACACAGCGUGGCAAAGUGGCUGUGGCUAGUCUGCC, the self-cleavage rises from 0.06 to 0.08.

First: GGCAAAGCUCAACACAGCGUGGCAAAGUGGCUGUGGCUAGGCUGCC
Second: GGCAAAGCUCAACACAUCGUGGCAAAGUGGCUGUGGCUAGACUGCC
The self-cleavage of the first is lower: 0.04 for the first, 0.11 for the second.

Going from GGCAAAGCUCAACACAACGUGGCAAAGUGGCUGUGGCUAGACUGCC to GGCAAAGCUCAACACACCGUGGCAAAGUGGCUGUGGCUAGACUGCC, the self-cleavage rises from 0.08 to 0.39.

Going from GGCAAAGCUAAACACAGCGUGGCAAAGUGGCUGUGGCUAGACUGCC to GGCAAAGCUGAACACAGCGUGGCAAAGUGGCUGUGGCUAGACUGCC, the self-cleavage falls from 0.04 to 0.03.

First: GGCAAAGCUUAACACAGCGUGGCAAAGUGGCUGUGGCUAGACUGCC
Second: GGCAAAGCUCAAAACAGCGUGGCAAAGUGGCUGUGGCUAGACUGCC
The self-cleavage of the first is lower: 0.09 for the first, 0.15 for the second.

First: GGCAAAGCUCAAGACAGCGUGGCAAAGUGGCUGUGGCUAGACUGCC
Second: GGCAAAGCUCAAUACAGCGUGGCAAAGUGGCUGUGGCUAGACUGCC
The self-cleavage of the first is lower: 0.08 for the first, 0.15 for the second.

Going from GGCAAAGUUCAACACAGCGUGGCAAAGUGGCUGUGGCUAGACUGCC to GGCAAAGAUCAACACAGCGUGGCAAAGUGGCUGUGGCUAGACUGCC, the self-cleavage falls from 0.44 to 0.27.

Going from GGCAAAGGUCAACACAGCGUGGCAAAGUGGCUGUGGCUAGACUGCC to GGCAAAGCUCAACACAGCGUGGCAAAGUGGUUGUGGCUAGACUGCC, the self-cleavage falls from 0.22 to 0.06.

Going from GGCAAAGCUCAACACAGCGUGGCAAAGUGGAUGUGGCUAGACUGCC to GGCAAAGCUCAACACAGCGUGGCAAAGUGGGUGUGGCUAGACUGCC, the self-cleavage falls from 0.08 to 0.05.

GGCAAAGCUCAACACUGCGUGGCAAAGUGGCUGUGGCUAGACUGCC and GGCAAAGCUCAACACGGCGUGGCAAAGUGGCUGUGGCUAGACUGCC are the same in self-cleavage: 0.07 for the first, 0.07 for the second.

Compared with GGCAAAGCUCAACACCGCGUGGCAAAGUGGCUGUGGCUAGACUGCC, GGCAAAUCUCAACACAGCGUGGCAAAGUGGCUGUGGCUAGACUGCC is higher in self-cleavage: 0.1 for the first, 0.26 for the second.

Going from GGCAAACCUCAACACAGCGUGGCAAAGUGGCUGUGGCUAGACUGCC to GGCAAAACUCAACACAGCGUGGCAAAGUGGCUGUGGCUAGACUGCC, the self-cleavage rises from 0.23 to 0.35.

Going from GGCAAAGCUCAACACAGCGUGGCAAUGUGGCUGUGGCUAGACUGCC to GGCAAAGCUCAACACAGCGUGGCAACGUGGCUGUGGCUAGACUGCC, the self-cleavage falls from 0.19 to 0.18.

First: GGCAAAGCUCAACACAGCGUGGCAAGGUGGCUGUGGCUAGACUGCC
Second: GGCUGAGCUCAACACAGCGUGGCAAAGUGGCUGUGGCAAGACUGCC
The self-cleavage of the first is lower: 0.1 for the first, 0.12 for the second.

Compared with GGCUGAGCUCAACACAGCGUGGCAAAGUGGCUGUGGCCAGACUGCC, GGCUGAGCUCAACACAGCGUGGCAAAGUGGCUGUGGCGAGACUGCC is lower in self-cleavage: 0.17 for the first, 0.03 for the second.

Compared with GGCAAAGCUCAACACAGCGUGGCAAAGUGGCUGUUGCUAGACUGCC, GGCAAAGCUCAACACAGCGUGGCAAAGUGGCUGUAGCUAGACUGCC is lower in self-cleavage: 0.26 for the first, 0.1 for the second.

First: GGCAAAGCUCAACACAGCGUGGCAAAGUGGCUGUCGCUAGACUGCC
Second: GGCAAAGCUCAACACAGCCUGGCAAAGUGGCUGUGGCUAGACUGCC
The self-cleavage of the first is higher: 0.08 for the first, 0.06 for the second.

Compared with GGCAAAGCUCAACACAGCAUGGCAAAGUGGCUGUGGCUAGACUGCC, GGCAAAGCUCAACACAGCUUGGCAAAGUGGCUGUGGCUAGACUGCC is lower in self-cleavage: 0.29 for the first, 0.11 for the second.

Going from GGCAAAGCUCAACACAGCGUGGCGAAGUGGCUGUGGCUAGACUGCC to GGCAAAGCUCAACACAGCGUGGCUAAGUGGCUGUGGCUAGACUGCC, the self-cleavage falls from 0.23 to 0.11.

First: GGCAAAGCUCAACACAGCGUGGCCAAGUGGCUGUGGCUAGACUGCC
Second: GGCUGAGCUCAACACAGCGUGGCAAAGUGGCUGUGGCUAGACAGCC
The self-cleavage of the first is lower: 0.08 for the first, 0.67 for the second.

Going from GGCUGAGCUCAACACAGCGUGGCAAAGUGGCUGUGGCUAGACCGCC to GGCUGAGCUCAACACAGCGUGGCAAAGUGGCUGUGGCUAGACGGCC, the self-cleavage rises from 0.03 to 0.06.

Compared with GGCAAAGCUCAACACAGAGUGGCAAAGUGGCUGUGGCUAGACUGCC, GGCAAAGCUCAACACAGUGUGGCAAAGUGGCUGUGGCUAGACUGCC is higher in self-cleavage: 0.1 for the first, 0.14 for the second.

First: GGCAAAGCUCAACACAGGGUGGCAAAGUGGCUGUGGCUAGACUGCC
Second: GGCAAAGCUCAACACAGCGUGGCAAAGUUGCUGUGGCUAGACUGCC
The self-cleavage of the first is lower: 0.09 for the first, 0.13 for the second.

First: GGCAAAGCUCAACACAGCGUGGCAAAGUCGCUGUGGCUAGACUGCC
Second: GGCAAAGCUCAACACAGCGUGGCAAAGUAGCUGUGGCUAGACUGCC
The self-cleavage of the first is lower: 0.07 for the first, 0.1 for the second.
